Data taken from IntAct's records for PubMed 23957209.

B1: NADPH oxidase activator 1 (Homo sapiens), Q86UR1 (parent)
chain: MASLGDLVRAWHLGAQAVDRGDWARALHLFSGVPAPPARLCFNAGCVHLLAGDPEAALRAFDQAVTKDTCMAVGFFQRGVANFQLARFQEALSDFWLALEQLRGHAAIDYTQLGLRFKLQAWEVLHNVASAQCQLGLWTEAASSLREAMSKWPEGSLNGLDSALDQVQRRGSLPPRQVPRGEVFRPHRWHLKHLEPVDFLGKAKVVASAIPDDQGWGVRPQQPQGPGANHDARSLIMDSPRAGTHQGPLDAETEVGADRCTSTAYQEQRPQVEQVGKQAPLSPGLPAMGGPGPGPCEDPAGAGGAGAGGSEPLVTVTVQCAFTVALRARRGADLSSLRALLGQALPHQAQLGQLSYLAPGEDGHWVPIPEEESLQRAWQDAAACPRGLQLQCRGAGGRPVLYQVVAQHSYSAQGPEDLGFRQGDTVDVLCEVDQAWLEGHCDGRIGIFPKCFVVPAGPRMSGAPGRLPRSQQGDQP
partner: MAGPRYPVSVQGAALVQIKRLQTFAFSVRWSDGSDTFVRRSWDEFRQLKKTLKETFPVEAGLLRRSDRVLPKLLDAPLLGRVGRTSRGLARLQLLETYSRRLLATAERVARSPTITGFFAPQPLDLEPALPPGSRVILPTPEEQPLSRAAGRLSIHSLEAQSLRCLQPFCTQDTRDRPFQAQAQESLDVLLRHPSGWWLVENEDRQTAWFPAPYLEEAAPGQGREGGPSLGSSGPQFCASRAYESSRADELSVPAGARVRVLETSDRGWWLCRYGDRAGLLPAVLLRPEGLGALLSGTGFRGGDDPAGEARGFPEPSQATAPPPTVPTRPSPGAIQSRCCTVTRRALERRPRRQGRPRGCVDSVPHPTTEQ
B2: NADPH oxidase organizer 1 (Homo sapiens), Q8NFA2-3 (parent)
chain: B1 partner
partner: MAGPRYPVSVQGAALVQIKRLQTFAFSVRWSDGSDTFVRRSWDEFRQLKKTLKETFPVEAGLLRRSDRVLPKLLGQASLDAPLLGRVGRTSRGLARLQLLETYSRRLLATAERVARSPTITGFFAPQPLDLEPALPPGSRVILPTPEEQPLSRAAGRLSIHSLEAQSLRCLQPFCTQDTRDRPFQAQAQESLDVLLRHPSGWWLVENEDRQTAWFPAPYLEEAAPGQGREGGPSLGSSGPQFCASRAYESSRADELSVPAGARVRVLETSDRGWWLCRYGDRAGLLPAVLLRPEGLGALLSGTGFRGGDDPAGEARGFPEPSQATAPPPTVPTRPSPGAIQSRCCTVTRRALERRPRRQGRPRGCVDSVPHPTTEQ
B3: NADPH oxidase organizer 1 (Homo sapiens), Q8NFA2-3 (parent)
chain: B1 partner
partner: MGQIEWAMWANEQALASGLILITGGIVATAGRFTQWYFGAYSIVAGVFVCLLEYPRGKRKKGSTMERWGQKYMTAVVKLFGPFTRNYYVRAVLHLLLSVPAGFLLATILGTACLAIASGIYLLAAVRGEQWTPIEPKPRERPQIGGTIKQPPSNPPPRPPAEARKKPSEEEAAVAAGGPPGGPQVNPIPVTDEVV
B4: NADPH oxidase organizer 1 (Homo sapiens), Q8NFA2-3 (parent)
chain: B1 partner
partner: B1 chain
B5: Cytochrome b-245 light chain (Homo sapiens), P13498 (parent)
chain: B3 partner
partner: B1 partner

Variants of: B1
Settings: with NOXO1, Q8NFA2-3

effect of a mutation on the interaction | Variant
disrupting interaction | MASLGDLVRAWHLGAQAVDRGDWARALHLFSGVPAPPARLCFNAGCVHLLAGDPEAALRAFDQAVTKDTCMAVGFFQRGVANFQLARFQEALSDFWLALEQLRGHAAIDYTQLGLRFKLQAWEVLHNVASAQCQLGLWTEAASSLREAMSKWPEGSLNGLDSALDQVQRRGSLPPRQVPRGEVFRPHRWHLKHLEPVDFLGKAKVVASAIPDDQGWGVRPQQPQGPGANHDARSLIMDSPRAGTHQGPLDAETEVGADRCTSTAYQEQRPQVEQVGKQAPLSPGLPAMGGPGPGPCEDPAGAGGAGAGGSEPLVTVTVQCAFTVALRARRGADLSSLRALLGQALPHQAQLGQLSYLAPGEDGHWVPIPEEESLQRAWQDAAACPRGLQLQCRGAGGRPVLYQVVAQHSYSAQGPEDLGFRQGDTVDVLCEVDQARLEGHCDGRIGIFPKCFVVPAGPRMSGAPGRLPRSQQGDQP [W436R]

Variants of: B2
Settings: with noxo1_human NOXO1, Q8NFA2

effect of a mutation on the interaction | Variant
disrupting interaction | MAGPRYPVSVQGAALVQIKRLQTFAFSVRWSDGSDTFVRRSWDEFRQLKKTLKETFPVEAGLLRRSDRVLPKLLDAPLLGRVGRTSRGLARLQLLETYSRRLLATAERVARSPTITGFFAPQPLDLEPALPPGSRVILPTPEEQPLSRAAGRLSIHSLEAQSLRCLQPFCTQDTRDRPFQAQAQESLDVLLRHPSGRWLVENEDRQTAWFPAPYLEEAAPGQGREGGPSLGSSGPQFCASRAYESSRADELSVPAGARVRVLETSDRGWWLCRYGDRAGLLPAVLLRPEGLGALLSGTGFRGGDDPAGEARGFPEPSQATAPPPTVPTRPSPGAIQSRCCTVTRRALERRPRRQGRPRGCVDSVPHPTTEQ [W197R]

Variants of: B3
Settings: with cy24a_human CYBA

effect of a mutation on the interaction | Variant
decreasing interaction | MAGPRYPVSVQGAALVQIKRLQTFAFSVRWSDGSDTFVRRSWDEFRQLKKTLKETFPVEAGLLRRSDRVLPKLLDAPLLGRVGRTSRGLARLQLLETYSRRLLATAERVARSPTITGFFAPQPLDLEPALPPGSRVILPTPEEQPLSRAAGRLSIHSLEAQSLRCLQPFCTQDTRDRPFQAQAQESLDVLLRHPDGWWLVENEDRQTAWFPAPYLEEAAPGQGREGGPSLGSSGPQFCASRAYESSRADELSVPAGARVRVLETSDRGWWLCRYGDRAGLLPAVLLRPEGLGALLSGTGFRGGDDPAGEARGFPEPSQATAPPPTVPTRPSPGAIQSRCCTVTRRALERRPRRQGRPRGCVDSVPHPTTEQ [S195D]

Variants of: B3
Settings: with cy24a_human CYBA
Remark: another data set of the same source

effect of a mutation on the interaction | Variant
decreasing interaction | MAGPRYPVSVQGAALVQIKRLQTFAFSVRWSDGSDTFVRRSWDEFRQLKKTLKETFPVEAGLLRRSDRVLPKLLDAPLLGRVGRTSRGLARLQLLETYSRRLLATAERVARSPTITGFFAPQPLDLEPALPPGSRVILPTPEEQPLSRAAGRLSIHSLEAQSLRCLQPFCTQDTRDRPFQAQAQESLDVLLRHPEGWWLVENEDRQTAWFPAPYLEEAAPGQGREGGPSLGSSGPQFCASRAYESSRADELSVPAGARVRVLETSDRGWWLCRYGDRAGLLPAVLLRPEGLGALLSGTGFRGGDDPAGEARGFPEPSQATAPPPTVPTRPSPGAIQSRCCTVTRRALERRPRRQGRPRGCVDSVPHPTTEQ [S195E]

Variants of: B3
Settings: with cy24a_human CYBA, P13498

effect of a mutation on the interaction | Variant
decreasing interaction | MAGPRYPVSVQGAALVQIKRLQTFAFSVRWSDGSDTFVRRSWDEFRQLKKTLKETFPVEAGLLRRSDRVLPKLLDAPLLGRVGRTSRGLARLQLLETYSRRLLATAERVARSPTITGFFAPQPLDLEPALPPGSRVILPTPEEQPLSRAAGRLSIHSLEAQSLRCLQPFCTQDTRDRPFQAQAQESLDVLLRHPAGWWLVENEDRQTAWFPAPYLEEAAPGQGREGGPSLGSSGPQFCASRAYESSRADELSVPAGARVRVLETSDRGWWLCRYGDRAGLLPAVLLRPEGLGALLSGTGFRGGDDPAGEARGFPEPSQATAPPPTVPTRPSPGAIQSRCCTVTRRALERRPRRQGRPRGCVDSVPHPTTEQ [S195A]

Variants of: B4
Settings: with noxa1_human NOXA1, Q86UR1

effect of a mutation on the interaction | Variant
disrupting interaction | MAGPRYPVSVQGAALVQIKRLQTFAFSVRWSDGSDTFVRRSWDEFRQLKKTLKETFPVEAGLLRRSDRVLPKLLDAPLLGRVGRTSRGLARLQLLETYSRRLLATAERVARSPTITGFFAPQPLDLEPALPPGSRVILPTPEEQPLSRAAGRLSIHSLEAQSLRCLQPFCTQDTRDRPFQAQAQESLDVLLRHPSGWWLVENEDRQTAWFPAPYLEEAAPGQGREGGPSLGSSGPQFCASRAYESSRADELSVPAGARVRVLETSDRGWWLCRYGDRAGLLPAVLLRPEGLGALLSGTGFRGGDDPAGEARGFPEPSQATAPPPTVPTRPSPGAIQSRCCTVARRALERRPRRQGRPRGCVDSVPHPTTEQ [T343A]

Variants of: B4
Settings: with noxa1_human NOXA1, Q86UR1
Remark: another data set of the same source

effect of a mutation on the interaction | Variant
increasing interaction | MAGPRYPVSVQGAALVQIKRLQTFAFSVRWSDGSDTFVRRSWDEFRQLKKTLKETFPVEAGLLRRSDRVLPKLLDAPLLGRVGRTSRGLARLQLLETYSRRLLATAERVARSPTITGFFAPQPLDLEPALPPGSRVILPTPEEQPLSRAAGRLSIHSLEAQSLRCLQPFCTQDTRDRPFQAQAQESLDVLLRHPSGWWLVENEDRQTAWFPAPYLEEAAPGQGREGGPSLGSSGPQFCASRAYESSRADELSVPAGARVRVLETSDRGWWLCRYGDRAGLLPAVLLRPEGLGALLSGTGFRGGDDPAGEARGFPEPSQATAPPPTVPTRPSPGAIQSRCCEVTRRALERRPRRQGRPRGCVDSVPHPTTEQ [T341E]

Variants of: B4
Settings: with noxa1_human NOXA1, Q86UR1
Remark: another data set of the same source

effect of a mutation on the interaction | Variant
disrupting interaction | MAGPRYPVSVQGAALVQIKRLQTFAFSVRWSDGSDTFVRRSWDEFRQLKKTLKETFPVEAGLLRRSDRVLPKLLDAPLLGRVGRTSRGLARLQLLETYSRRLLATAERVARSPTITGFFAPQPLDLEPALPPGSRVILPTPEEQPLSRAAGRLSIHSLEAQSLRCLQPFCTQDTRDRPFQAQAQESLDVLLRHPSGWWLVENEDRQTAWFPAPYLEEAAPGQGREGGPSLGSSGPQFCASRAYESSRADELSVPAGARVRVLETSDRGWWLCRYGDRAGLLPAVLLRPEGLGALLSGTGFRGGDDPAGEARGFPEPSQATAPPPTVPTRPSPGAIQSRCCAVTRRALERRPRRQGRPRGCVDSVPHPTTEQ [T341A]

Variants of: B4
Settings: with noxa1_human NOXA1, Q86UR1
Remark: another data set of the same source

effect of a mutation on the interaction | Variant
increasing interaction | MAGPRYPVSVQGAALVQIKRLQTFAFSVRWSDGSDTFVRRSWDEFRQLKKTLKETFPVEAGLLRRSDRVLPKLLDAPLLGRVGRTSRGLARLQLLETYSRRLLATAERVARSPTITGFFAPQPLDLEPALPPGSRVILPTPEEQPLSRAAGRLSIHSLEAQSLRCLQPFCTQDTRDRPFQAQAQESLDVLLRHPSGWWLVENEDRQTAWFPAPYLEEAAPGQGREGGPSLGSSGPQFCASRAYESSRADELSVPAGARVRVLETSDRGWWLCRYGDRAGLLPAVLLRPEGLGALLSGTGFRGGDDPAGEARGFPEPSQATAPPPTVPTRPSPGAIQSRCCDVTRRALERRPRRQGRPRGCVDSVPHPTTEQ [T341D]

Variants of: B5
Settings: with NOXO1, Q8NFA2-3

effect of a mutation on the interaction | Variant
disrupting interaction | MGQIEWAMWANEQALASGLILITGGIVATAGRFTQWYFGAYSIVAGVFVCLLEYPRGKRKKGSTMERWGQKYMTAVVKLFGPFTRNYYVRAVLHLLLSVPAGFLLATILGTACLAIASGIYLLAAVRGEQWTPIEPKPRERPQIGGTIKQPPSNPQPRPPAEARKKPSEEEAAVAAGGPPGGPQVNPIPVTDEVV [P156Q]
